Laboratory results published in patent WO2011104307A2 (dated 2011).

Molecular target: T1, rProtein A Sepharose FF (Staphylococcus aureus, UniProt P38507 37-327)
T1 construct: the protein ligand is immobilized on agarose beads; also called rProtein A Sepharose 4 FF
Experiment: microtiter plate column chromatography, Bradford assay; Bound (%)

B1: Bevacizumab Fab fragment (Fab, V domains shown)
VH: EVQLVESGGGLVQPGGSLRLSCAASGYTFTNYGMNWVRQAPGKGLEWVGWINTYTGEPTYAADFKRRFTFSLDTSKSTAYLQMNSLRAEDTAVYYCAKYPHYYGSSHWYFDVWGQGTLVTVSS
VL: DIQMTQSPSSLSASVGDRVTITCSASQDISNYLNWYQQKPGKAPKVLIYFTSSLHSGVPSRFSGSGSGTDFTLTISSLQPEDFATYYCQQYSTVPWTFGQGTKVEIKR
notes: also called Fab fragments
B1: no binding.
